The source of these data is publication PMC3223566.

Bounds are passed on as bounds.

Assay [1] has as its target RNAPΔRpo4/7, ten-subunit RNAP subassembly lacking Rpo4/7 (M. jannaschii) (UniProt Q58443).
The target in assay [2] is M. jannaschii RNA polymerase, wild type, reconstituted from 12 recombinant subunits (M. jannaschii) (UniProt Q58443).
Assay [3] has the same target. Nature of the assay: native gel or EMSA; competition in the TEC: RNAP (0.21 μM), NTS (20 μM), TS (15 μM), RNA (68 μM), TFE^G133*DL549 (0.74 μM), Spt4/5 or Spt4/5^A4R (1, 2.5, 15 μM). For orientation: A gel shift assay detects complexes by their altered migration in electrophoresis.
Assay [4] has the same target. This is another data set of the same source.
Assay [5] has the same target. The source holds these as a separate data set.
Assay [6] has the same target. The assay is described as follows: native gel or EMSA; competition in the PIC: Spt4/5 (0, 16, 32, 137 μM) added to preformed PICs (DNA, TBP, TFB, RNAP) with fluorescently labeled TFE (0.75 μM).
Assay [7] has the same target. Nature of the assay: native gel or EMSA; competition: Spt4/5 or Spt4/5^A4R (0.33, 1, 7.5, 25 μM) added to a preformed complex of free RNAP and TFE^133*DL549 (0.74 μM).

B1: TFE (archaeal transcription initiation factor E), unlabeled wild type (natural protein)
chain: MLNDPLVQEVLFNIFEGDEKGFEVIDVLLEKGETTEEEIAKELGVKLNVVRKLLYKLYDARLVDYKRWKDEDTNWYSYTWLPTLEKLPYVVKKKINELIKDLEKKLEFEKNNMFFFCPNCNVRFTFEEAMDYGFSCPGCGNMLQEFDNSELIKDLEEQIKFLKEELKNNPFLK
As for B1, the stimulation of promoter-directed transcription by TFE (8 μM) in assay [1] is < 1.2 fold. In assay [2], the stimulation of promoter-directed runoff transcription by TFE (0, 0.32, 8 μM) stood at 5 fold.

B2: Spt4/5, transcription elongation factor, wild type (complex)
chain 1: MRACLKCKYLTNDEICPICHSPTSENWIGLLIVINPEKSEIAKKAGIDIKGKYALSVKE
chain 2: MIFAVRTMVGQEKNIAGLMASRAEKEQLDVYSILASESLKGYVLVEAETKGDVEELIKGMPRVRGIVPGTIAIEEIEPLLTPKKIIENIEKGDVVEIIAGPFKGERAKVIRVDKHKEEVTLELENAAVPIPITLPVEGVKIVSKHKD
As for B2, the IC50 (commonly the midpoint of a concentration-inhibition curve) was determined as 0.79 µM in assay [3], 29 µM in assay [6] and 0.55 µM in assay [7]. Further, in assay [4], the inhibition of transcript synthesis in promoter-directed transcription, Spt4/5 at 55.2 μM was > 10 fold. Besides, the inhibition of promoter-directed runoff transcription by minimal complexes (DNA, TBP, TFB, RNAP; no TFE) in assay [5] was found to be 9.6 µM.
